Holding throughout (conditions): both partners purified
Assay [1] addresses T1, extracellular domain of human RAGE (residues 1 to 344) (human, UniProt Q15109 23-344).
T1 construct: signal peptide in the construct; receptor for advanced glycation end products, human, extracellular domain, residues 1 to 344; also called receptor for advanced glycation end products; recombinant RAGE; source: bought: Sino Biological Inc
Nature of the assay: SPR; OpenSPR, series of Fig. 10A; pCTS-L immobilised on NTA sensor chip; TLR4 or RAGE as analyte; reference values without mAb20 (not told whether with c-mAb preincubated or with no antibody).

Assay [2] concerns the target T2, human TLR4 (ECD-His Tag, residues 1 to 631) (human, UniProt O00206 24-631).
T2 construct: signal peptide in the construct; Toll-like receptor 4, human, extracellular domain, residues 1 to 631; also called Toll-like receptor 4; recombinant TLR4; source: bought: Sino Biological Inc
Described as above.

Assay [3] concerns the target T1, extracellular domain of human RAGE …. Description: SPR; OpenSPR (Nicoya); human pCTS-L immobilised on NTA sensor chip; human TLR4 or RAGE applied as analyte at various concentrations; Kd estimated with TraceDrawer.
Assay [4] concerns the target T2, human TLR4 (ECD-His Tag, residues 1 to …). Described as above.
The target in assay [5] is T1, extracellular domain of human RAGE …. Nature of the assay: SPR; OpenSPR (Nicoya); TLR4 (residues 1 to 631) or RAGE extracellular domain (residues 1 to 344) immobilised on NTA sensor chip; pCTS-L applied as analyte at different concentrations; representative Kd.
For assay [6], the target named is T2, human TLR4 (ECD-His Tag, residues 1 to …). Described as above.

T1 sequence (Q15109 23-344): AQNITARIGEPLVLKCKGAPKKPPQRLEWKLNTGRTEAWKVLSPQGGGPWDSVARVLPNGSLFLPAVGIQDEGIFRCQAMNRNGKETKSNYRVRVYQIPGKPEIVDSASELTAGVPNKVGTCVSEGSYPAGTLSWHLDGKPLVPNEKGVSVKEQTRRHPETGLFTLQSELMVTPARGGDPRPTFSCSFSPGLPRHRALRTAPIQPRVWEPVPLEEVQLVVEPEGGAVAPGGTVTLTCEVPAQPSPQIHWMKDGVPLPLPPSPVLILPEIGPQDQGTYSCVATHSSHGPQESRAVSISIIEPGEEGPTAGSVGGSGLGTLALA
T2 sequence (O00206 24-631): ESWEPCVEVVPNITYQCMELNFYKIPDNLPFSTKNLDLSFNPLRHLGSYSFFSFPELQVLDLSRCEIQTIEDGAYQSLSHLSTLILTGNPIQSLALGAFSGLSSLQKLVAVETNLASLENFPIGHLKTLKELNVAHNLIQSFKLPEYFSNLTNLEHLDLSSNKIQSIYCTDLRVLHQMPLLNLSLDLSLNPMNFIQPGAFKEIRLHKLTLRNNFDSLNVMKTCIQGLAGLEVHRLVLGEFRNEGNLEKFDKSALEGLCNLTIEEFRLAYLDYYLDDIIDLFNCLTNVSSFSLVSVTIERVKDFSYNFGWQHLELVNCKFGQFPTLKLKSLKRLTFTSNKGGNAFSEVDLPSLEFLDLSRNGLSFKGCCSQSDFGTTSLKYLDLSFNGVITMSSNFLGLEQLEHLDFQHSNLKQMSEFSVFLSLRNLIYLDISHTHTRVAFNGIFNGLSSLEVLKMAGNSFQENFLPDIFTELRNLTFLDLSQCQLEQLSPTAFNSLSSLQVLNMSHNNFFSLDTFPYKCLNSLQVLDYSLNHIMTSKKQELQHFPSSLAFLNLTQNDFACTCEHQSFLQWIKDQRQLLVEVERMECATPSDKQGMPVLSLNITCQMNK

B1: recombinant human procathepsin L (pCTS-L) (natural protein, UniProt P07711 18-333, looked up)
chain: TLTFDHSLEAQWTKWKAMHNRLYGMNEEGWRRAVWEKNMKMIELHNQEYREGKHSFTMAMNAFGDMTSEEFRQVMNGFQNRKPRKGKVFQEPLFYEAPRSVDWREKGYVTPVKNQGQCGSCWAFSATGALEGQMFRKTGRLISLSEQNLVDCSGPQGNEGCNGGLMDYAFQYVQDNGGLDSEESYPYEATEESCKYNPKYSVANDTGFVDIPKQEKALMKAVATVGPISVAIDAGHESFLFYKEGIYFEPDCSSEDMDHGVLVVGYGFESTESDNNKYWLVKNSWGEEWGMGGYVKMAKDRRNHCGIASAASYPTV
notes: procathepsin L (pCTS-L), human, recombinant; A HEK293-made pCTS-L is named only for stimulating PBMCs; also called proCTS-L; human pCTS-L; source: recombinant, highly purified
In the case of B1, the equilibrium dissociation constant (Kd) in assay [1] is 3.1 ± 0.4 nM; in assay [2] it was 20.3 ± 2.3 nM; in assay [3], 3.5 nM; in assay [4] it was 20.2 nM; in assay [5], 3 nM; in assay [6], 64.4 nM.

The record behind these values is publication PMC9897667, “Identification of procathepsin L (pCTS-L)–neutralizing monoclonal antibodies to treat potentially lethal sepsis” (Science Advances, 2023).
